# According to publication PMC6043778, “Purification and Initial Characterization of 3-Hydroxybenzoate 6-Hydroxylase From a Halophilic Martelella Strain AD-3” (Frontiers in Microbiology, 2018):
# Read-outs that look alike come from different tables or passages of the source.
# T1: 3HB6H from strain AD-3 (3-hydroxybenzoate 6-hydroxylase; AZF01_02545) (Martelella sp. AD-3, UniProt Z9T156WZO1)
# T1 construct: full-length, N-terminal His6 tag (pET28a, EcoRI/HindIII), E. coli BL21(DE3), Ni-NTA; about 46 kDa by SDS-PAGE, 90 kDa by Native-PAGE (probable dimer); FAD-containing
# T1 sequence (Z9T156WZO1 1-403): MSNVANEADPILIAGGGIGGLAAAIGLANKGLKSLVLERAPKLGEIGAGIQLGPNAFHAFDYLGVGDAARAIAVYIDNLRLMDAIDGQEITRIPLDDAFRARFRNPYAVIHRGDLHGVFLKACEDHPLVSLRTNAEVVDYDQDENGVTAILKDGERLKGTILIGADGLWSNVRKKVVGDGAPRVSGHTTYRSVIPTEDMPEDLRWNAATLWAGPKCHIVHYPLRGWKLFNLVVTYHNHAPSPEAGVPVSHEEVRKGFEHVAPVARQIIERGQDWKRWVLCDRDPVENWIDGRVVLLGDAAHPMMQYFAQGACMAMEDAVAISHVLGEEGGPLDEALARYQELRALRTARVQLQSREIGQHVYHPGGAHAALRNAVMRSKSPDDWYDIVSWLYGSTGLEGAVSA
# Key:
# [1] = biological target: T1, 3HB6H from strain AD-3 (3-hydroxybenzoate 6-hydroxylase; AZF01_02545); experiment: NADH oxidation at […] nm, Lineweaver-Burk; type: biochemical; conditions: 50 mM potassium phosphate pH 8.0, 30°C
# purified protein [2] = substrate: NC(=O)C1=CN([C@@H]2O[C@H](COP(=O)(O)OP(=O)(O)OC[C@H]3O[C@@H](n4cnc5c(N)ncnc54)[C@H](O)[C@@H]3O)[C@@H](O)[C@H]2O)C=CC1; experiment: purified protein; type: biochemical, Martelella sp. AD-3; conditions: 400 μM 3-hydroxybenzoate, 50 mM potassium phosphate pH 8.0, 30°C
# purified protein [3] = substrate: O=C(O)c1cccc(O)c1; experiment: purified protein; type: biochemical, Martelella sp. AD-3; conditions: 400 μM NADH, 50 mM potassium phosphate pH 8.0, 30°C
Molecule,"Km ([1]; 400 μM NADH, read-out: 3HB / Km)","Km ([1]; 400 μM 3-hydroxybenzoate, read-out: NADH / Km)",Km (purified protein [2]),kcat (purified protein [2]),kcat/Km (purified protein [2]),Km (purified protein [3]),kcat (purified protein [3]),kcat/Km (purified protein [3])
O=C(O)c1cccc(O)c1 [3-hydroxybenzoate],28.6 ± 7.3 µM,–,–,–,–,–,–,–
NC(=O)C1=CN([C@@H]2O[C@H](COP(=O)(O)OP(=O)(O)OC[C@H]3O[C@@H](n4cnc5c(N)ncnc54)[C@H](O)[C@@H]3O)[C@@H](O)[C@H]2O)C=CC1 [NADH],–,50 ± 9.7 µM,–,–,–,–,–,–
"3HB6H from strain AD-3 (3-hydroxybenzoate 6-hydroxylase; AZF01_02545) (Martelella sp. AD-3) (protein, full-length, N-terminal His6 tag (pET28a, EcoRI/HindIII), E. coli BL21(DE3), Ni-NTA; about 46 kDa by SDS-PAGE, 90 kDa by Native-PAGE (probable dimer); FAD-containing) MSNVANEADPILIAGGGIGGLAAAIGLANKGLKSLVLERAPKLGEIGAGIQLGPNAFHAFDYLGVGDAARAIAVYIDNLRLMDAIDGQEITRIPLDDAFRARFRNPYAVIHRGDLHGVFLKACEDHPLVSLRTNAEVVDYDQDENGVTAILKDGERLKGTILIGADGLWSNVRKKVVGDGAPRVSGHTTYRSVIPTEDMPEDLRWNAATLWAGPKCHIVHYPLRGWKLFNLVVTYHNHAPSPEAGVPVSHEEVRKGFEHVAPVARQIIERGQDWKRWVLCDRDPVENWIDGRVVLLGDAAHPMMQYFAQGACMAMEDAVAISHVLGEEGGPLDEALARYQELRALRTARVQLQSREIGQHVYHPGGAHAALRNAVMRSKSPDDWYDIVSWLYGSTGLEGAVSA",–,–,104.1 ± 18.2 µM,7.8 ± 0.4 s⁻¹,80000 M⁻¹ s⁻¹,72.6 ± 10.1 µM,5.7 ± 0.2 s⁻¹,80000 M⁻¹ s⁻¹
"3HB6H from strain AD-3 (3-hydroxybenzoate 6-hydroxylase; AZF01_02545) (Martelella sp. AD-3; Q305P) (protein, full-length, N-terminal His6 tag (pET28a, EcoRI/HindIII), E. coli BL21(DE3), Ni-NTA; about 46 kDa by SDS-PAGE, 90 kDa by Native-PAGE (probable dimer); FAD-containing) MSNVANEADPILIAGGGIGGLAAAIGLANKGLKSLVLERAPKLGEIGAGIQLGPNAFHAFDYLGVGDAARAIAVYIDNLRLMDAIDGQEITRIPLDDAFRARFRNPYAVIHRGDLHGVFLKACEDHPLVSLRTNAEVVDYDQDENGVTAILKDGERLKGTILIGADGLWSNVRKKVVGDGAPRVSGHTTYRSVIPTEDMPEDLRWNAATLWAGPKCHIVHYPLRGWKLFNLVVTYHNHAPSPEAGVPVSHEEVRKGFEHVAPVARQIIERGQDWKRWVLCDRDPVENWIDGRVVLLGDAAHPMMPYFAQGACMAMEDAVAISHVLGEEGGPLDEALARYQELRALRTARVQLQSREIGQHVYHPGGAHAALRNAVMRSKSPDDWYDIVSWLYGSTGLEGAVSA",–,–,95.9 ± 23.2 µM,1.6 ± 0.1 s⁻¹,20000 M⁻¹ s⁻¹,91.3 ± 13.5 µM,1.6 ± 0.1 s⁻¹,20000 M⁻¹ s⁻¹
"3HB6H from strain AD-3 (3-hydroxybenzoate 6-hydroxylase; AZF01_02545) (Martelella sp. AD-3; Y306H) (protein, full-length, N-terminal His6 tag (pET28a, EcoRI/HindIII), E. coli BL21(DE3), Ni-NTA; about 46 kDa by SDS-PAGE, 90 kDa by Native-PAGE (probable dimer); FAD-containing) MSNVANEADPILIAGGGIGGLAAAIGLANKGLKSLVLERAPKLGEIGAGIQLGPNAFHAFDYLGVGDAARAIAVYIDNLRLMDAIDGQEITRIPLDDAFRARFRNPYAVIHRGDLHGVFLKACEDHPLVSLRTNAEVVDYDQDENGVTAILKDGERLKGTILIGADGLWSNVRKKVVGDGAPRVSGHTTYRSVIPTEDMPEDLRWNAATLWAGPKCHIVHYPLRGWKLFNLVVTYHNHAPSPEAGVPVSHEEVRKGFEHVAPVARQIIERGQDWKRWVLCDRDPVENWIDGRVVLLGDAAHPMMQHFAQGACMAMEDAVAISHVLGEEGGPLDEALARYQELRALRTARVQLQSREIGQHVYHPGGAHAALRNAVMRSKSPDDWYDIVSWLYGSTGLEGAVSA",–,–,103.7 ± 13.6 µM,1.6 ± 0.3 s⁻¹,–,46.3 ± 6.9 µM,1.5 ± 0.1 s⁻¹,30000 M⁻¹ s⁻¹
"3HB6H from strain AD-3 (3-hydroxybenzoate 6-hydroxylase; AZF01_02545) (Martelella sp. AD-3; A308G) (protein, full-length, N-terminal His6 tag (pET28a, EcoRI/HindIII), E. coli BL21(DE3), Ni-NTA; about 46 kDa by SDS-PAGE, 90 kDa by Native-PAGE (probable dimer); FAD-containing) MSNVANEADPILIAGGGIGGLAAAIGLANKGLKSLVLERAPKLGEIGAGIQLGPNAFHAFDYLGVGDAARAIAVYIDNLRLMDAIDGQEITRIPLDDAFRARFRNPYAVIHRGDLHGVFLKACEDHPLVSLRTNAEVVDYDQDENGVTAILKDGERLKGTILIGADGLWSNVRKKVVGDGAPRVSGHTTYRSVIPTEDMPEDLRWNAATLWAGPKCHIVHYPLRGWKLFNLVVTYHNHAPSPEAGVPVSHEEVRKGFEHVAPVARQIIERGQDWKRWVLCDRDPVENWIDGRVVLLGDAAHPMMQYFGQGACMAMEDAVAISHVLGEEGGPLDEALARYQELRALRTARVQLQSREIGQHVYHPGGAHAALRNAVMRSKSPDDWYDIVSWLYGSTGLEGAVSA",–,–,33.7 ± 6.4 µM,2 ± 0.1 s⁻¹,60000 M⁻¹ s⁻¹,38.0 ± 10.1 µM,2.3 ± 0.1 s⁻¹,60000 M⁻¹ s⁻¹
"3HB6H from strain AD-3 (3-hydroxybenzoate 6-hydroxylase; AZF01_02545) (Martelella sp. AD-3; Y221F) (protein, full-length, N-terminal His6 tag (pET28a, EcoRI/HindIII), E. coli BL21(DE3), Ni-NTA; about 46 kDa by SDS-PAGE, 90 kDa by Native-PAGE (probable dimer); FAD-containing) MSNVANEADPILIAGGGIGGLAAAIGLANKGLKSLVLERAPKLGEIGAGIQLGPNAFHAFDYLGVGDAARAIAVYIDNLRLMDAIDGQEITRIPLDDAFRARFRNPYAVIHRGDLHGVFLKACEDHPLVSLRTNAEVVDYDQDENGVTAILKDGERLKGTILIGADGLWSNVRKKVVGDGAPRVSGHTTYRSVIPTEDMPEDLRWNAATLWAGPKCHIVHFPLRGWKLFNLVVTYHNHAPSPEAGVPVSHEEVRKGFEHVAPVARQIIERGQDWKRWVLCDRDPVENWIDGRVVLLGDAAHPMMQYFAQGACMAMEDAVAISHVLGEEGGPLDEALARYQELRALRTARVQLQSREIGQHVYHPGGAHAALRNAVMRSKSPDDWYDIVSWLYGSTGLEGAVSA",–,–,86.7 ± 10.8 µM,1 ± 0.1 s⁻¹,10000 M⁻¹ s⁻¹,164.2 ± 14.0 µM,1.7 ± 0.1 s⁻¹,10000 M⁻¹ s⁻¹
